# B1: CPEB3 Ribozyme (parent)
# chain: UAACAGGGGGCCACAGCAGAAGCGUUCACGUCGCAGCCCCUGUCAGAUUCUGGUGAAUCUGCGAAUUCUGCUGUAUAUCUC
# Variants of: B1
# Test: self-cleavage, relative activity (ratio to wild type); higher = more cleavage; in vitro, sequencing
# Method in brief: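 For each CPEB3 ribozyme variant, relative activity is its cleaved/total read fraction divided by the unmutated ribozyme's. Barcoded error-prone PCR libraries were transcribed by T7 RNA polymerase (5 hours, 37°C) and held in DNase I for 15 min before an EDTA stop, with cleavage occurring throughout. Template-switching reverse transcription and Illumina sequencing were used to read the RNAs. A 5-read minimum applied, and results are the mean of three batches.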
row,Variant,self-cleavage
1,UAGCAGGGGGCCACAGCAGAAGCGUUCACGUCGCAGCCCCUGUCAGAUUCUGGUGAAUCUGCUAAUUCUGCUGUAUAUCUC [A3G G63U],1.12
2,UAGCAGGGGGCCACAGCAGAAGCGUUCACGUCGCAUCCCCUGUCAGAUUCUGGUGAAUCUGCGAAUUCUGCUGUAUAUCUC [A3G G36U],0.26
3,UAGCAGGGGGCCACAGCAGAAGCGUUCACGUCGCAACCCCUGUCAGAUUCUGGUGAAUCUGCGAAUUCUGCUGUAUAUCUC [A3G G36A],0.2
4,UAGCAGGGGCCCACAGCAGAAGCGUUCACGUCGCAGCCCCUGUCAGAUUCUGGUGAAUCUGCGAAUUCUGCUGUAUAUCUC [A3G G10C],0.35
5,UAGCAGGGGACCACAGCAGAAGCGUUCACGUCGCAGCCCCUGUCAGAUUCUGGUGAAUCUGCGAAUUCUGCUGUAUAUCUC [A3G G10A],0.46
6,UAGCAGGGGGCCACAGCAGAAACGUUCACGUCGCAGCCCCUGUCAGAUUCUGGUGAAUCUGCGAAUUCUGCUGUAUAUCUC [A3G G22A],0.29
7,UAGCAGGGGGCCACAGCAGAAUCGUUCACGUCGCAGCCCCUGUCAGAUUCUGGUGAAUCUGCGAAUUCUGCUGUAUAUCUC [A3G G22U],0.15
8,UAGCAGGGGGCCACAGCAGAAGCGUUCACGUCGCAGCCCCUGUCAGAUUCUGGUGAAUCUGCGAAUUCUGGUGUAUAUCUC [A3G C71G],0.57
9,UAGCAGGGGGCCACAGCAGAAGCGUUCACGUCGCAGCCCCUGUCAGAUUCUGGUGAAUCUGCGAAUUCUGUUGUAUAUCUC [A3G C71U],0.64
10,UAGCAGGGGGCCACAGCAGAAGCGUUCACGUCGCAGCCCCUGUCAGAUUCUGGUGAAUCUGCGAAUUCUGAUGUAUAUCUC [A3G C71A],0.27
11,UAGCAGGGGGCCACAGCAGAAGCGUUCACGUCGCAGCCCCUGUCAGAUUCUGGUGAAUCUGCGAAUUAUGCUGUAUAUCUC [A3G C68A],0.46
12,UAGCAGGGGGCCACAGCAGAAGCGUUCACGUCGCAGCCCCUGUCAGAUUCUGGUGAAUCUGCGAAUUUUGCUGUAUAUCUC [A3G C68U],0.79
13,UAGCAGGGGGCCACAGCAGAAGCGUUCACGUCGCAGCCCCUGUCAGAUUCUGGUGAAUCUGCGAAUUGUGCUGUAUAUCUC [A3G C68G],0.47
14,UAGCAGGGGGCCACAGCAGAAGCGUUCACGUCGCAGCCCCUGUCAGAUUCUGGUGAAUCUGCGAAUUCUGCUGUAUAUCUG [A3G C81G],1.17
15,UAGCAGGGGGCCACAGCAGAAGCGUUCACGUCGCAGCCCCUGUCAGAUUCUAGUGAAUCUGCGAAUUCUGCUGUAUAUCUC [A3G G52A],1.14
16,UAGCAGGGGGCCACAGCAGAAGCGUUCACGUCGCAGCCCCUGUCAGAUUCUUGUGAAUCUGCGAAUUCUGCUGUAUAUCUC [A3G G52U],1.14
17,UAGCAGGGGGCCACAGCAGAAGCGUUCACGUCGCAGCCCCUGUCAGAUUCUGGUGAAUUUGCGAAUUCUGCUGUAUAUCUC [A3G C59U],0.74

row,Variant,self-cleavage
1,UAGCAGGGGGCCACAGCAGAAGCGUUCACGUCGCAGCCCCUGUCAGAUUCUGGUGAAUAUGCGAAUUCUGCUGUAUAUCUC [A3G C59A],0.62
2,UAGCACGGGGCCACAGCAGAAGCGUUCACGUCGCAGCCCCUGUCAGAUUCUGGUGAAUCUGCGAAUUCUGCUGUAUAUCUC [A3G G6C],0.77
3,UAGCAAGGGGCCACAGCAGAAGCGUUCACGUCGCAGCCCCUGUCAGAUUCUGGUGAAUCUGCGAAUUCUGCUGUAUAUCUC [A3G G6A],0.59
4,UAGCAUGGGGCCACAGCAGAAGCGUUCACGUCGCAGCCCCUGUCAGAUUCUGGUGAAUCUGCGAAUUCUGCUGUAUAUCUC [A3G G6U],0.57
5,UAGCAGGGGGCCACAGCAGAAGCGUUCACGUCGCAGCCACUGUCAGAUUCUGGUGAAUCUGCGAAUUCUGCUGUAUAUCUC [A3G C39A],0.05
6,UAGCAGGGGGCCACAGCAGAAGCGUUCACGUCGCAGCCUCUGUCAGAUUCUGGUGAAUCUGCGAAUUCUGCUGUAUAUCUC [A3G C39U],0.64
7,UAGCAGGGGGCCACAGCAGAAGCGUUCACGUCGCAGCCGCUGUCAGAUUCUGGUGAAUCUGCGAAUUCUGCUGUAUAUCUC [A3G C39G],0.34
8,UAGCAGGGGGCCACAGCAGAAGCGUUCACGUCGCAGCCCCUGUCAGAUUCUGGUGAAUCUGCGAAUUCUGCUGUAUAUAUC [A3G C79A],1.05
9,UAGCAGGGGGCCACAGCAGAAGCGUUCACGUCGCAGCCCCUGUCAGAUUCUGGUGAAUCUGCGAAUUCUGCUGUAUAUUUC [A3G C79U],1
10,UAGCAGGAGGCCACAGCAGAAGCGUUCACGUCGCAGCCCCUGUCAGAUUCUGGUGAAUCUGCGAAUUCUGCUGUAUAUCUC [A3G G8A],0.37
11,UAGCAGGUGGCCACAGCAGAAGCGUUCACGUCGCAGCCCCUGUCAGAUUCUGGUGAAUCUGCGAAUUCUGCUGUAUAUCUC [A3G G8U],0.34
12,UAGCAGGGGGCCACAUCAGAAGCGUUCACGUCGCAGCCCCUGUCAGAUUCUGGUGAAUCUGCGAAUUCUGCUGUAUAUCUC [A3G G16U],0.62
13,UAGCAGGGGGCCACACCAGAAGCGUUCACGUCGCAGCCCCUGUCAGAUUCUGGUGAAUCUGCGAAUUCUGCUGUAUAUCUC [A3G G16C],0.47
14,UAGCAGGGGGCCACAACAGAAGCGUUCACGUCGCAGCCCCUGUCAGAUUCUGGUGAAUCUGCGAAUUCUGCUGUAUAUCUC [A3G G16A],0.38
15,UAGCAGGGAGCCACAGCAGAAGCGUUCACGUCGCAGCCCCUGUCAGAUUCUGGUGAAUCUGCGAAUUCUGCUGUAUAUCUC [A3G G9A],0.53
16,UAGCAGGGCGCCACAGCAGAAGCGUUCACGUCGCAGCCCCUGUCAGAUUCUGGUGAAUCUGCGAAUUCUGCUGUAUAUCUC [A3G G9C],0.6
17,UAGCAGGGUGCCACAGCAGAAGCGUUCACGUCGCAGCCCCUGUCAGAUUCUGGUGAAUCUGCGAAUUCUGCUGUAUAUCUC [A3G G9U],0.34
